Literature values, collected in US20250341526A1, “NOVEL DYES” (Quantum-Si Incorporated, priority 2024, published 2025).

B1: PS519: amino acid recognition protein, SEQ ID NO: 147 (protein, listed as Manduca sexta)
chain: MLCGRVFKQGEPAYSCRECGMDNTCVLCVECFKVSAHRHHKYKMGQSGGGGCCDCGDTEAWKRDPFCELHAA
B2: PS518: amino acid recognition protein, SEQ ID NO: 146 (protein, listed as Nilaparvata lugens)
chain: MVCGRVFKMGEPSYHCRECGMDATCVLCVDCFKKSSHRNHKYKMGTSIGGGCCDCGDVEAWKTEPYCEVHIA
B3: PS516: amino acid recognition protein, SEQ ID NO: 144 (protein)
chain: MLCGKVFKTGEPTYSCRDCANDPTCVLCIDCFQNGAHKNHRYKMNTSGGGGYCDCGDQEAWTSHPFCNLHSP
modifications: Crassostrea gigas
B4: PS514: amino acid recognition protein, SEQ ID NO: 142 (protein, listed as Tribolium castaneum)
chain: MVCGRVFKLGEPTYSCRECGMDNTCVLCVNCFKNSEHRFHKYKMGTSQGGGCCDCGDVEAWKKAPFCDVHIA
B5: PS517: amino acid recognition protein, SEQ ID NO: 145 (protein)
chain: MMCGRVFKMGEPTYSCRECGVDSTCVLCVGCFQQSAHRDHKYKMGTSGGGGCCDCGDTEAWKRDPFCEIHMV
modifications: Harpegnathos saltator
B6: PS511: amino acid recognition protein, SEQ ID NO: 139 (protein, listed as Habropoda laboriosa)
chain: MICGKVFKMGEATYSCKECGVDPTCVLCADCFKQSAHRHHKYRMGTSSGGGFCDCGDIEAWKKEPFCNTHLA
B7: PS510: amino acid recognition protein, SEQ ID NO: 138 (protein, listed as Camponotus floridanus)
chain: MICGRMFKMGEPTYSCRQCGMDSTCVLCVDCFKQSAHRNHKYKMGTSSGGGCCDCGDTEAWKNEPFCKIHLA
B8: PS515: amino acid recognition protein, SEQ ID NO: 143 (protein, listed as Wasmannia auropunctata)
chain: MICGKMFKIGEPTYSCRECGMDSTCVLCVDCFKQSAHRNHKYKMGTSSGGGCCDCGDTEAWKKEPFCKTHVV
B9: PS513: amino acid recognition protein, SEQ ID NO: 141 (protein, listed as Pyrenophora seminiperda)
chain: MPCGHIFKNGEATYRCKTCTADDTCVLCARCFDASDHEGHQVFVSVSPGNSGCCDCGDDEAWVRPVHCNIHSA
B10: PS509: amino acid recognition protein, SEQ ID NO: 137 (protein)
chain: MICGHGFKTGEPTYSCRDCATDPTCVLCISCFQKSPHREHRYKMSASGGGGYCDCGDPEAWKIEPFCEQHKP
modifications: Lottia gigantean
B11: PS508: amino acid recognition protein, SEQ ID NO: 136 (protein)
chain: MLCGRVFKEGETVYSCRDCAIDPTCVLCIECFQKSVHKSHRYKMHASAGGGFCDCGDLEAWKTGPCCSQHDP
modifications: Anabarilius graham
B12: PS512: amino acid recognition protein, SEQ ID NO: 140 (protein, listed as Mastacembelus armatus)
chain: MLCGRVFKEGETVYSCRDCAIDPTCVLCMDCFQDSVHKSHRYKMHASAGGGFCDCGDVEAWKIGPYCSKHDP

test system: amino acid at a terminal position of a polypeptide; details: Table 2; amino acid at terminal position (phosphotyrosine also internal); inferred from literature and/or demonstrated by the inventors; cited from earlier work

Binding Pref., K, R, H:
B1
B2
B3
B4
B5
B6
B7
B8
B9
B10
B11
B12
